These results are taken from patent publication US20110165145A1, “IGF-II/IGF-IIE BINDING PROTEINS” (priority 2008, published 2011).

The experiment deals with insulin-like growth factor I (IGF-I) (UniProt P05019). Briefly: cell-based or functional assay.
insulin-like growth factor I (IGF-I), sequence (P05019 49-118 limits assumed): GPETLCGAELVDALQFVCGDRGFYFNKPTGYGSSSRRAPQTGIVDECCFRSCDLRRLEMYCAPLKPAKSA

In turn, “Neu-IGF-II antibody (anti-IGF-II antibody, R&D system Cat# MAB292)” came in with an IGF-I stimulated Ba/F3 cell proliferation of 30 % inhibition.
